One substance from patent US20210355220A1 can be followed below.

Holding throughout (test): flow cytometry on transfected HEK293 cells, background control
A general note: A flow cytometer gives signals particle by particle.

Assay [1] deals with hPD1 on HEK293 cells (human) (UniProt Q15116).
Assay [2] concerns the target human CTLA-4 expressed on cells (human) (UniProt P16410).
The target in assay [3] is hCD28 on HEK293 cells (human) (UniProt P10747).
Assay [4] deals with hBTLA on HEK293 cells (human) (UniProt Q7Z6A9).
The target in assay [5] is hICOS on HEK293 cells (human) (UniProt Q9Y6W8).
Chain of hICOS on HEK293 cells (human) (Q9Y6W8 21-199): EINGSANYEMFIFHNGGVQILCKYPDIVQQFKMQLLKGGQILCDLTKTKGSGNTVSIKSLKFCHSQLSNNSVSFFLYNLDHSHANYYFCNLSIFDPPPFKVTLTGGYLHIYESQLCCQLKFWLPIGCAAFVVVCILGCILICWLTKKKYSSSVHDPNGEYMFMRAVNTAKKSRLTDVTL
In assay [6] the target is hPDL2 on HEK293 cells (human) (UniProt Q9BQ51).
Chain of hPDL2 on HEK293 cells (human) (Q9BQ51 20-273): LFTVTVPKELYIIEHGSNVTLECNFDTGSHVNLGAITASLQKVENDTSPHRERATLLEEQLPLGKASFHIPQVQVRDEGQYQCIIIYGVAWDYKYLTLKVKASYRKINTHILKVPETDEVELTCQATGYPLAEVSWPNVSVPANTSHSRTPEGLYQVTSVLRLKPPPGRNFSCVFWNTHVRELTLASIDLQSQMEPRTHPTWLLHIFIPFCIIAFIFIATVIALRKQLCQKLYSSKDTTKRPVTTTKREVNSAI
Assay [7] has as its target hPDL1 on HEK293 cells (human) (UniProt Q9NZQ7).

Chain of hPDL1 on HEK293 cells (human) (Q9NZQ7 19-290): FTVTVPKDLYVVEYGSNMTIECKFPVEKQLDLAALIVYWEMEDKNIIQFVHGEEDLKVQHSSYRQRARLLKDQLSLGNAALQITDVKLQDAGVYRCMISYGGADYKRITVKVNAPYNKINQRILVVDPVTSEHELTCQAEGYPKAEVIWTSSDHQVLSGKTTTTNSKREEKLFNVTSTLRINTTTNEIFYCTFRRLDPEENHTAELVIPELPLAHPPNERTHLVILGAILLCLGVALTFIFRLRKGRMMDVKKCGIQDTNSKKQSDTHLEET
Chain of human CTLA-4 expressed on cells (human) (P16410 36-223): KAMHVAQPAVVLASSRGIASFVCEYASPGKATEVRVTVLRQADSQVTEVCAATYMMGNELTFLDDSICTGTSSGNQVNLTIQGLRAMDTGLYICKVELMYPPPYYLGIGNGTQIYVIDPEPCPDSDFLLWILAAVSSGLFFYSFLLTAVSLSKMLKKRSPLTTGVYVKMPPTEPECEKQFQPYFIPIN
Chain of hPD1 on HEK293 cells (human) (Q15116 25-288): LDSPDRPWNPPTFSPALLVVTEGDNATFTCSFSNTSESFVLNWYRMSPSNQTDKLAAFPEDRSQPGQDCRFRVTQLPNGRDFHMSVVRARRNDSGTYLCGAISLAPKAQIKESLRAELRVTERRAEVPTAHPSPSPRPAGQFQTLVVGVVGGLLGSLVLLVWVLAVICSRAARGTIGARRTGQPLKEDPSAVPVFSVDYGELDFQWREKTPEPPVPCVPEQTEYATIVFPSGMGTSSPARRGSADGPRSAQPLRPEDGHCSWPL

Turning to “Secondary Antibody only (anti-human labeled secondary antibody)”, the MFI in assay [1] is 74 MFI; in assay [2] it was 78 MFI; in assay [3] it was 69 MFI; in assay [4], 82 MFI; in assay [5], 67 MFI; in assay [6] it was 71 MFI. In assay [7], this substance gave an MFI of 68 MFI.
